Patent US20250003978A1, “DIAGNOSIS AND TREATMENT OF ANTI-PF4 INDUCED THROMBOCYTOPENIA” (The Regents of the University of California, priority 2021, published 2025)
Substitutions are numbered along the chain they refer to. Names and notes keep the numbering of the source. One block for each molecule: values may come before it. Positions of bridges follow the written chain, without caps; N, C: chain ends. Non-standard residues stand in square brackets, D forms with d. Residues, ends and D or L forms follow the SMILES beside them. hArg = N=C(N)NCCCC[C@H](N)C(=O)O; Mpa = O=C(O)CCS

What was measured:
soluble integrin αIIbβ3 [1] = biological target: T1, soluble integrin αIIbβ3 (Homo sapiens, UniProt P05106+P08514); test: ELISA-type integrin binding assay, soluble αIIbβ3; details: 1 mM Mn2+
T1 construct: Soluble recombinant αIIbβ3 or αvβ3 (AgroBio, 1 μg/ml); purchased AgroBio
Procedure: (§1) FIG. 2. PF4 specifically binds to soluble αIIbβ3 and αvβ3 in ELISA-type binding assays in 1 mM Mn^2+. FIG. 2a PF4 binds to soluble integrins in 1 mM Mn^2+ in ELISA-type binding assays. PF4 was immobilized to wells of 96-well microtiter plate and incubated with soluble αIIbβ3 or αvβ3 (1 μg/ml) in Tyrode-HEPES buffer with 1 mM Mn^2+ (to activate integrins) for 1 hr at room temperature and bound integrins were quantified using anti-β3 (mAb AV10) and HRP-conjugated anti-mouse IgG. Data are shown as means+/−SD in triplicate experiments. […] FIG. 2b Binding of authentic PF4 (Invitrogen) to integrins. Binding assays were performed as described in (a). PF4 (6.25 μg/ml) was used. Data are shown as means+/−SD in triplicate experiments. […] FIGS. 2c and d The binding of PF4 to integrins was suppressed by the distintegrin domain of ADAM15 fused to GST (ADAM15 disintegrin), but not by control GST. To establish the specificity of PF4 binding to soluble integrins αIIbβ3 (b) and αvβ3 (c), if ADAM15 disintegrin, which is known to bind to integrins αIIbβ3 (22) and αvβ3 (21), suppress the binding. […] Data are shown as means+/−SD in triplicate experiments. […] Bound integrins were quantified as described in (a). […]
(§2) Wells of 96-well microtiter plates were coated with PF4. […] Bound αIIbβ3 or αvβ3 was measured using anti-integrin β3 mAb (AV-10) followed by HRP-conjugated goat anti-mouse IgG and peroxidase substrates.

soluble integrin αvβ3 [2] = biological target: T2, soluble integrin αvβ3 (Homo sapiens, UniProt P05106+P06756); test: ELISA-type integrin binding assay, soluble αvβ3; details: competitor 100 μg/ml; immobilized PF4 (12.5 g/ml); 1 mM Mn2+
T2 construct: Soluble recombinant αIIbβ3 or αvβ3 (AgroBio, 1 μg/ml); purchased AgroBio
Procedure: as §1, §2

[3] = biological target: T3, soluble recombinant integrin αIIbβ3 (UniProt P08514 32-993; P05106 27-718); test: ELISA-type binding: immobilized PF4, soluble αIIbβ3 1 µg/ml, 1 mM Mn2+, detection with anti-β3 mAb AV10
T3 construct: Bought soluble heterodimer, used at 1 µg/ml; also called soluble αIIbβ3
Procedure: (§4) Data are shown as means+/−SD in triplicate experiments. […] Binding assays were performed as described in (a). […] Data are shown as means+/−SD in triplicate experiments. […] Data are shown as means+/−SD in triplicate experiments. […] Assays were performed as described in (a). Data is shown as means+/−SD in triplicate experiments. […] Wells were incubated with soluble integrins (1 μg/ml) in Tyrode-HEPES buffer with different cations (1 mM). Bound integrins were quantified as described in (a). Data are shown as means+/−SD in triplicate experiments.

[4] = biological target: T4, soluble recombinant integrin αvβ3 (UniProt P06756 31-992; P05106 27-718); test: ELISA-type binding: immobilized PF4, soluble αvβ3 1 µg/ml, 1 mM Mn2+, detection with anti-β3 mAb AV10
T4 construct: Bought soluble heterodimer, used at 1 µg/ml; also called soluble αvβ3
Procedure: as §4

soluble integrin αIIbβ3 [5] = biological target: T1, soluble integrin αIIbβ3; test: ELISA-type integrin activation assay, soluble αIIbβ3 binding to immobilized γC390-411; format: biochemical; details: for ability of PF4 mutant to mediate RTO/PF4-induced αIIbβ3 activation: PF4 mutant in complex with anti-PF4 RTO, 1 mM Ca2+
Procedure: FIG. 3. […] FIG. 3a. Anti-PF4 (RTO) markedly enhances PF4-induced activation of soluble αIIbβ3 in 1 mM Ca^2+ in ELISA-type activation assays in a dose-dependent manner at physiological concentrations of PF4 (below 1 μg/ml). The fibrinogen fragments γC390-411 (a specific ligand for αIIbβ3) was immobilized to wells of 96-well microtiter plate. […] Anti-PF4 (RTO or KKO, 10 μg/ml) were added (without heparin). After washing, bound integrins were quantified using anti-β3 (mAb AV10) and HRP-conjugated anti-mouse IgG. Mouse IgG (10 μg/ml) and no antibody were used as negative controls. Data are shown as means+/−SD in triplicate experiments. FIG. 3b. […] Commercial PF4 was used instead of our own PF4 preparation. Activation assays were performed as described in a. […] FIG. 3c. Point mutations in the predicted integrin-binding site (site 2) of PF4 suppressed activation of αIIbβ3 by the anti-PF4/PF4 complex. […] FIG. 3d. The R20E/R22E/K46E/R49E mutant suppressed integrin activation by the anti-PF4/PF4 complex. WT PF4 ([…]) and excess PF4 mutant (5 or 10 μg/ml) were used.
(§3) Wells of 96-well microtiter plates were coated with γC390-411 (a specific ligand for αIIbβ3) or γC399tr (a specific ligand for αvβ3). Remaining protein binding sites were blocked with BSA. Soluble recombinant αIIbβ3 or αvβ3 (AgroBio, 1 μg/ml) was pre-incubated with chemokines PF4 or anti-PF4/PF4 for 10 min at room temperature and was added to the wells and incubated in HEPES-Tyrodes buffer with 1 mM CaCl2 for 1 h at room temperature. After unbound αIIbβ3 or αvβ3 was removed by rinsing the wells with binding buffer, bound αIIbβ3 or αvβ3 was measured using anti-integrin B3 mAb (AV-10) followed by HRP-conjugated goat anti-mouse IgG and peroxidase substrates.

soluble integrin αvβ3 [6] = biological target: T2, soluble integrin αvβ3; test: ELISA-type integrin activation assay, soluble αvβ3 binding to immobilized γC399tr; format: biochemical; details: for ability of PF4 mutant to mediate RTO/PF4-induced αvβ3 activation: PF4 mutant in complex with anti-PF4 RTO, 1 mM Ca2+
Procedure: FIG. 4. […] FIG. 4a. Anti-PF4 (RTO) markedly enhances PF4-induced activation of soluble αvβ3 in 1 mM Ca^2+ in ELISA-type activation assays. Fibrinogen fragment γC399tr (151-399 segment of fibrinogen γ chain, a specific ligand for αvβ3) was immobilized to wells of 96-well microtiter plate. […] Anti-PF4 (RTO or KKO, 10 μg/ml) were added (without heparin). After washing, bound integrins were quantified using anti-β3 (mAb AV10) and HRP-conjugated anti-mouse IgG. Mouse IgG (10 μg/ml) and no antibody were used as negative controls. […] FIG. 4b. […] Commercial PF4 was used instead of our own PF4 preparation. Activation assays were performed as described in a. […] FIG. 4c. Point mutations in the predicted integrin-binding site (site 2) of PF4 suppressed activation of αvβ3 by the anti-PF4/PF4 complex. […] FIG. 4d. The R20E/R22E/K46E/R49E mutant suppressed integrin activation by the RTO/PF4 complex. WT PF4 (0.5 μg/ml) and excess PF4 mutant (5 or 10 μg/ml) were used.
as §3

T2 sequence (P06756 31-992 limits assumed): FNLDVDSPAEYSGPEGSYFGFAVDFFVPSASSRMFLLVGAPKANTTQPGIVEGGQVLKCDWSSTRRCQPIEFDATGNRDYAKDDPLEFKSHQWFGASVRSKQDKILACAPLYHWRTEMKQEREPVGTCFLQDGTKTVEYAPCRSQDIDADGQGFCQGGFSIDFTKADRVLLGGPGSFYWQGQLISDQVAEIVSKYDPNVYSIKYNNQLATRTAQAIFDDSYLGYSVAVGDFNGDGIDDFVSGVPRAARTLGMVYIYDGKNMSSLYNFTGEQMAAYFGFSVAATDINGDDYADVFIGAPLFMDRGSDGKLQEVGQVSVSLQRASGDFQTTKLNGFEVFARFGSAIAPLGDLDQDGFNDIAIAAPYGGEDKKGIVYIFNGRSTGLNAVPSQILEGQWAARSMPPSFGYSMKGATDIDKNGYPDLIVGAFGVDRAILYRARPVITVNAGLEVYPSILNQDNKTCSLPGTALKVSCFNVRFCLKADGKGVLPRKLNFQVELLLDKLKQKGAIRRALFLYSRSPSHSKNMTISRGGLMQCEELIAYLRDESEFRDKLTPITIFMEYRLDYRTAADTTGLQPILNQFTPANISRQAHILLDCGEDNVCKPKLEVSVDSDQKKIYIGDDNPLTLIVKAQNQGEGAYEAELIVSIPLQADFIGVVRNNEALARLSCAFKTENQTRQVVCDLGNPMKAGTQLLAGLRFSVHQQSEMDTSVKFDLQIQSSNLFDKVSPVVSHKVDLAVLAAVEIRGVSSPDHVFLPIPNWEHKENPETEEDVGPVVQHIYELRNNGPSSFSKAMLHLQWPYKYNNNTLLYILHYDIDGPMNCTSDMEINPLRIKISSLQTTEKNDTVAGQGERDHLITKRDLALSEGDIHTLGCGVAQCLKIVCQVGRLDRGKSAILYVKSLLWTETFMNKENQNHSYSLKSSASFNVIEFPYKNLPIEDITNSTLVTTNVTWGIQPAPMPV
T2 sequence (P05106 27-718 limits assumed): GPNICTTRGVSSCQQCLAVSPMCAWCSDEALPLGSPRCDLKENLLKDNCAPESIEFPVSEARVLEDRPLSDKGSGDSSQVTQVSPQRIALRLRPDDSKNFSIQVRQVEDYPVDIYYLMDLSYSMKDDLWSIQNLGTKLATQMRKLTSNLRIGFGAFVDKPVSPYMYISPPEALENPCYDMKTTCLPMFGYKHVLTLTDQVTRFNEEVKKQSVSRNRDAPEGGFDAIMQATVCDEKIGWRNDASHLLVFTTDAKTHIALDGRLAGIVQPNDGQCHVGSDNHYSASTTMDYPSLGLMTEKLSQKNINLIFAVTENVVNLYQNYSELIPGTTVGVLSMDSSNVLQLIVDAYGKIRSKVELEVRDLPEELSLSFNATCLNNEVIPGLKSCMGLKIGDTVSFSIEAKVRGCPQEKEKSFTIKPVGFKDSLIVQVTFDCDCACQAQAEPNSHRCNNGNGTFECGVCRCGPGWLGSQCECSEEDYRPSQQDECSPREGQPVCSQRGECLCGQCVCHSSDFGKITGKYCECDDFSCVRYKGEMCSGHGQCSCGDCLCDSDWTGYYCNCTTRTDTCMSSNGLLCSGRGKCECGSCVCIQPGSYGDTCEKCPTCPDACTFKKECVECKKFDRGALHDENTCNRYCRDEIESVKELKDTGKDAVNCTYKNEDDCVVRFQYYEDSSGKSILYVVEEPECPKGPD
T4 sequence (P06756 31-992, chain 1 of 2): as the sequence (P06756 31-992 limits assumed) above
T4 sequence (P05106 27-718, chain 2 of 2): as the sequence (P05106 27-718 limits assumed) above

Molecule: N=C(N)NCCCC[C@@H]1NC(=O)CCSSC[C@@H](C(N)=O)NC(=O)[C@@H]2CCCN2C(=O)[C@H](Cc2c[nH]c3ccccc23)NC(=O)[C@H](CC(=O)O)NC(=O)CNC1=O [eptifibatide] ([Mpa][hArg]GDWPC-NH2; disulfide 1-7)
- effect of integrin antagonists on PF4 binding to αIIbβ3 (soluble integrin αIIbβ3 [1]; PF4 coated at 50 μg/ml, mAb 7E3 10 μg/ml, eptifibatide 0.65 μg/ml, cyclic RGDfV 10 μM): weak inhibition

B2: R20E/R22E/K46E/R49E: PF4 (SEQ ID NO: 1) quadruple mutant defective in site 2 binding; dominant-negative antagonist (protein)
chain: EAEEDGDLQCLCVKTTSQVEPEHITSLEVIKAGPHCPTAQLIATLENGEKICLDLQAPLYKKIIKKLLES
modifications: Description ofsequence: PF4 sp|P02776|32-101
notes: dominant-negative antagonist
- ability of PF4 mutant to mediate RTO/PF4-induced αIIbβ3 activation (soluble integrin αIIbβ3 [5]): most effectively reduced
- suppression of αIIbβ3 activation by the anti-PF4/PF4 complex (antagonist effect) (soluble integrin αIIbβ3 [5]; WT PF4 (0.5 g/ml) and excess PF4 mutant (5 or 10 μg/ml), RTO): suppressed
- ability of PF4 mutant to mediate RTO/PF4-induced αvβ3 activation (soluble integrin αvβ3 [6]): most effectively reduced
- suppression of αvβ3 activation by the RTO/PF4 complex (antagonist effect) (soluble integrin αvβ3 [6]; WT PF4 (0.5 μg/ml) and excess PF4 mutant (5 or 10 μg/ml), RTO): suppressed

B4: R20E/R22E: PF4 (SEQ ID NO: 1) double mutant, Arg20 and Arg22 mutated to Glu (protein)
chain: B2 chain with E46K, E49R
modifications: Description ofsequence: PF4 sp|P02776|32-101
- ability of PF4 mutant to mediate RTO/PF4-induced αIIbβ3 activation (soluble integrin αIIbβ3 [5]): reduced ability
- ability of PF4 mutant to mediate RTO/PF4-induced αvβ3 activation (soluble integrin αvβ3 [6]): reduced ability

Second part, the molecule after the results:

- suppression of αvβ3 binding to immobilized PF4 (soluble integrin αvβ3 [2]): suppressed
- suppression of αIIbβ3 binding to immobilized PF4 (soluble integrin αIIbβ3 [1]; competitor 100 μg/ml, immobilized PF4 (12.5 g/ml)): suppressed
Molecule: ADAM15 disintegrin: disintegrin domain of ADAM15 fused to GST, known to bind integrins αIIbβ3 and αvβ3

- Kd [3]: < 1 mg/L
- Kd [4]: < 1 mg/L
B1: PF4 (platelet factor 4, chemokine CXCL4), preparation generated in the inventors' lab (ligand)
chain: B2 chain with E20R, E22R, E46K, E49R
notes: Made in E. coli BL21 from pET28a as inclusion bodies, purified on Ni-NTA under denaturing conditions and renatured; also called WT PF4; wild-type PF4; not shown: Vector-derived N-terminal tag and leader of pET28a (His tag used for Ni-NTA purification, BamHI/EcoRI insert)

- ability of PF4 mutant to mediate RTO/PF4-induced αIIbβ3 activation (soluble integrin αIIbβ3 [5]): reduced ability
- ability of PF4 mutant to mediate RTO/PF4-induced αvβ3 activation (soluble integrin αvβ3 [6]): reduced ability
B3: K46E/R49E: PF4 (SEQ ID NO: 1) double mutant, Lys46 and Arg49 mutated to Glu (protein)
chain: B2 chain with E20R, E22R
modifications: Description ofsequence: PF4 sp|P02776|32-101
